Numbering of substitutions follows the chain as printed. Where “and” joins values, the source holds several entries; their conditions need not be identical. Equal values may be shown once.
B1: LN01 gH/UCA (antibody, V domains shown)
VH: QLQLQESGPGLVKPSETLSLTCTVSGGSISSSSYYWGWIRQPPGKGLEWIGSIYYSGSTYYNPSLKSRVTISVDTSKNQFSLKLSSVTAADTAVYYCVRMPSHGFWSTSFSYWYFDLWGRGTLVTVSS
VL: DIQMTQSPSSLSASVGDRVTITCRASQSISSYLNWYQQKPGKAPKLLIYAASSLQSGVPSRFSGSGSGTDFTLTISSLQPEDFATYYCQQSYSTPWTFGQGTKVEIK
notes: IgG; source: Expi293F, transient transfection (PEI), purified by protein A chromatography
B2: LN01 UCA/sL (antibody, V domains shown)
VH: B1 VH with T108G, S109Y
VL: DIQMTQSPSSLSASVGDKVTITCRASQSVTKYLNWYQFKTGQAPRILIYGTYTLLSGVSPRFSGAGSGSLYTLTITNIQPEDFATYYCQQAHSTPWTFGQGTHVAAN
notes: as for B1
B3: LN01 UCA/gL (antibody, V domains shown)
VH: B1 VH with T108G, S109Y
VL: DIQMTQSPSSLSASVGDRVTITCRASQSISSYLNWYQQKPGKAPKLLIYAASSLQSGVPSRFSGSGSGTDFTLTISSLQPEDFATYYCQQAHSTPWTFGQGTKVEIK
notes: as for B1
B4: LN01 gH/gL (antibody, V domains shown)
VH: B1 VH
VL: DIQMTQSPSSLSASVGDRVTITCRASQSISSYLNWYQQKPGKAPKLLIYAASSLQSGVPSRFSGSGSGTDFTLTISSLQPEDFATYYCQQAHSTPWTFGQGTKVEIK
notes: as for B1
B5: LN01 UCA/UCA (antibody, V domains shown)
VH: B1 VH with T108G, S109Y
VL: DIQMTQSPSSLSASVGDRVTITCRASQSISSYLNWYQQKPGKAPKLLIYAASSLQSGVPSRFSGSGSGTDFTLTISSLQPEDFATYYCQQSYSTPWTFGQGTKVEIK
notes: also called the UCA version of LN01; source: Expi293F, transient transfection (PEI), purified by protein A chromatography
B6: LN01 gH/sL (antibody, V domains shown)
VH: B1 VH
VL: B2 VL
notes: as for B1
B7: LN01 sH/gL (antibody, V domains shown)
VH: QVQLEESGPGLVQPWGTLSLTCRVSGDSVSNDNYYWAWIRQTPGRELQVIGTIYYSGTTYYNPSLRNRVTISLDKSVNVVSLRLGSVSAADTAQYYCVRMPSHGFWSTSFSYWYFDLWGRGHFVAVSW
VL: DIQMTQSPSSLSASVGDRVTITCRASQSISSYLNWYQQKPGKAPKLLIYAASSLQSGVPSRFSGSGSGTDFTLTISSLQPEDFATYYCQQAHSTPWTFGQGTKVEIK
notes: as for B1
B8: LN01 recombinant IgG1 monoclonal antibody (antibody, V domains shown)
VH: B7 VH
VL: B2 VL
notes: also called LN01 IgG1; IgG1 LN01 antibody; source: Expi293F, transient transfection (PEI), purified by protein A chromatography
B9: LN01 sH/gL-FR (antibody, V domains shown)
VH: B7 VH
VL: DIQMTQSPSSLSASVGDRVTITCRASQSVTKYLNWYQQKPGKAPKLLIYGTYSLQSGVPSRFSGSGSGTDFTLTISSLQPEDFATYYCQQAHSTPWTFGQGTKVEIK
notes: as for B1

Tests used:
Details in all cases: both partners purified
[1] = molecular target: T1, MPER-TM2 (gp41 residues 630-711, containing the complete TM region) (HIV-1 group M; Env Q74599 (HXB2-like), …, UniProt Q74599); assay: BLI; Octet Red; biotinylated IgG on Streptavidin biosensors; MPER-TM2 in 25 mM HEPES pH 7.5, 150 mM NaCl, 0.1 % Fos-Choline-12, 25°C; global fit 1:1 model or steady state analysis
T1 construct: not shown: His-tag, N-terminal, cleaved; flag-tag, N-terminal, cleaved

[2] = molecular target: T2, MPER-TM1 peptide (gp41 residues 671-689) (HIV-1, strain  (6SNC maps to …)); assay: SPR
T2 construct: also called gp41 MPER-TM1; source: synthetic peptide (Smart Bioscience, Grenoble)

[3] = molecular target: T1, MPER-TM2 (gp41 residues 630-711, …); assay: SPR

Binder | Kd [1] | binding result [1] | other results
B1 | 4700 ± 1700 nM | – | –
B2 | – | no binding | –
B3 | – | no binding | –
B4 | 1400 nM | – | –
B5 | – | no binding | –
B6 | 6.2 ± 0.02 nM | – | –
B7 | 453 ± 82 nM | – | –
B8 | 2.3 ± 0.01 nM | – | Kd [2]: 161 nM and 170 nM; Kd [3]: 13 nM
B9 | 7 ± 0.03 nM | – | –

— paper PMC6854463, “Structural Basis for Broad HIV-1 Neutralization by the MPER-Specific Human Broadly Neutralizing Antibody LN01” (Cell Host & Microbe, 2019)
